B1: Staphylococcal nuclease domain-containing protein 1 (Homo sapiens), Q7KZF4 (parent)
chain: MASSAQSGGSSGGPAVPTVQRGIIKMVLSGCAIIVRGQPRGGPPPERQINLSNIRAGNLARRAAATQPDAKDTPDEPWAFPAREFLRKKLIGKEVCFTIENKTPQGREYGMIYLGKDTNGENIAESLVAEGLATRREGMRANNPEQNRLSECEEQAKAAKKGMWSEGNGSHTIRDLKYTIENPRHFVDSHHQKPVNAIIEHVRDGSVVRALLLPDYYLVTVMLSGIKCPTFRREADGSETPEPFAAEAKFFTESRLLQRDVQIILESCHNQNILGTILHPNGNITELLLKEGFARCVDWSIAVYTRGAEKLRAAERFAKERRLRIWRDYVAPTANLDQKDKQFVAKVMQVLNADAIVVKLNSGDYKTIHLSSIRPPRLEGENTQDKNKKLRPLYDIPYMFEAREFLRKKLIGKKVNVTVDYIRPASPATETVPAFSERTCATVTIGGINIAEALVSKGLATVIRYRQDDDQRSSHYDELLAAEARAIKNGKGLHSKKEVPIHRVADISGDTQKAKQFLPFLQRAGRSEAVVEYVFSGSRLKLYLPKETCLITFLLAGIECPRGARNLPGLVQEGEPFSEEATLFTKELVLQREVEVEVESMDKAGNFIGWLHIDGANLSVLLVEHALSKVHFTAERSSYYKSLLSAEEAAKQKKEKVWAHYEEQPVEEVMPVLEEKERSASYKPVFVTEITDDLHFYVQDVETGTQLEKLMENMRNDIASHPPVEGSYAPRRGEFCIAKFVDGEWYRARVEKVESPAKIHVFYIDYGNREVLPSTRLGTLSPAFSTRVLPAQATEYAFAFIQVPQDDDARTDAVDSVVRDIQNTQCLLNVEHLSAGCPHVTLQFADSKGDVGLGLVKEGLVMVEVRKEKQFQKVITEYLNAQESAKSARLNLWRYGDFRADDADEFGYSR

Variants of: B1
Conditions: with piwl1_human PIWIL1, Q96J94
Chain of piwl1_human PIWIL1, Q96J94 (Q96J94 whole entry): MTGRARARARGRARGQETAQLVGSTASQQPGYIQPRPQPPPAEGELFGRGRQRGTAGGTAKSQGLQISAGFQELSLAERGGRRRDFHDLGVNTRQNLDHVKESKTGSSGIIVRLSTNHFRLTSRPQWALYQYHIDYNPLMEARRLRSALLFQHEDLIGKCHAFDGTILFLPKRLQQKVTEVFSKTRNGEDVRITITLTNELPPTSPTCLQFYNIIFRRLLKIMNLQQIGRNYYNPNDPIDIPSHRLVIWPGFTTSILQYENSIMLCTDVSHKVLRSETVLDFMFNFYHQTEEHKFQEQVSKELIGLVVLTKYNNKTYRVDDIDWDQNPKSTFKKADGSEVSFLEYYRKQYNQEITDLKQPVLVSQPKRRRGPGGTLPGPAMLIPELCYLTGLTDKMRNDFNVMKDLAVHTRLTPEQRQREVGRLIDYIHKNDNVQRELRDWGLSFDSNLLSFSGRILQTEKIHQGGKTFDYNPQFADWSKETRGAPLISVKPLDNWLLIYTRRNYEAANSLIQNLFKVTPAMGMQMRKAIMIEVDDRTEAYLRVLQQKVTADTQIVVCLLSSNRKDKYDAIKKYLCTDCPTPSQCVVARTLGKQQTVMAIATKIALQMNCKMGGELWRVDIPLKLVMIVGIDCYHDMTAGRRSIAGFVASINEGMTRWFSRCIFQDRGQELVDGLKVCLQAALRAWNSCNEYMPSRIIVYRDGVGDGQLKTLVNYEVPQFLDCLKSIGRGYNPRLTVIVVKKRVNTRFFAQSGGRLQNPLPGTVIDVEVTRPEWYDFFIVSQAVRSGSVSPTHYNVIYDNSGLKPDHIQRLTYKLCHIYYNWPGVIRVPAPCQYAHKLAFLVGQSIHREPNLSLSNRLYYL

Row | Variant | effect of a mutation on the interaction
1 | Y746L | decreasing interaction strength
2 | Y763L | decreasing interaction
3 | F740L | decreasing interaction
4 | N768R | disrupting interaction
5 | N768Q | decreasing interaction
6 | Y766L | decreasing interaction

Reference: IntAct's records for PubMed 20937909
